Test results: paper PMC3913652

Target: rat GLP-1 receptor (rat) (UniProt P32301)
Sequence (P32301 22-463): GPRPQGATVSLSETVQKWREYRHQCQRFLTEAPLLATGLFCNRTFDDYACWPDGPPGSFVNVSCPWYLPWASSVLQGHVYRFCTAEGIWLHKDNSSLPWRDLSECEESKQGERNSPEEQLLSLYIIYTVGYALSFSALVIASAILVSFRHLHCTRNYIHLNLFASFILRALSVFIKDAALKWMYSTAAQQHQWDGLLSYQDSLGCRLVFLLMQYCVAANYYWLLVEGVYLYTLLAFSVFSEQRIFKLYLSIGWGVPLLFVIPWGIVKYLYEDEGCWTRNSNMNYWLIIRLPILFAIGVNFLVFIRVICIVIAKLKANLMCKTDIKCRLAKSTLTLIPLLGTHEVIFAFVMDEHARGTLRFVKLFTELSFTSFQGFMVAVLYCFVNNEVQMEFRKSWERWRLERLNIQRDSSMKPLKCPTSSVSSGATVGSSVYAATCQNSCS

Substance: [Leu^14]exenatide (peptide)
- EC50, cAMP in 6–23 clone 6 cells (GLP-1 Receptor Functional Assay, 0.1% BSA): 6 pM
